We go through eleven molecules from patent US20230295284A1 (published 2023).

To fix the notation:
B1: LMJ2.4C (VHH)
VHH: QVQLVEAGGGLVQAGGSLRLSCAASGSTFSHSAGGWYRQAPEKQRELVAGIRSDGNINYADSVKDRFTISRDNASNTMYLQMNNLKPEDTAVYVCNIRGSYGNTYYSRWGQGIQVTVSS
modifications: sortase-tagged with biotin in the Western blots ; Purified by a his-tag for BLI and sortase-tagged with biotin in the Western blots. The tag letters are not stated for the free nanobody, so they are left out.
B2: LMJ2.5J (VHH)
VHH: QVQLVETRGGLVQAGGSLRLSCAVSGSTFSHSAGGWYRQAPEKQRELVAGIGSAGNINYADSVKDRFTISRDNASNTMYLQMNNLKPEDTAVYVCNIRGSYGNTYYSRWGQGTQVTVSS
modifications: sortase-tagged with biotin in the Western blots ; Western blots used the nanobody sortase-tagged with biotin at a terminus. The BLI material was his-tag purified. Tag letters are not stated for the stand-alone nanobody and are left out.
B3: LMJ2.5G (VHH)
VHH: QVQLVETEGGLVQAGGSLRLSCAASGSTFSHSAGGWYRQAPEKQRELVAGIRSDGNINYADSVKDRFTISRDNASNTMYLQMNNLKPEDTAVYVCNIRGSYGNTYYSRWGQGTQVTVSS
modifications: sortase-tagged with biotin in the Western blots ; Western blots used the nanobody sortase-tagged with biotin at a terminus. The BLI material was his-tag purified. Tag letters are not stated for the stand-alone nanobody and are left out.
B4: LMJ1.2C (VHH)
VHH: QVQLVETGGGLVQAGGSLRLSCAASGSTFSHSAGGWYRQAPEKQRELVAGIRSDGNINYADSVKDRFTISRDNASNTMYLQMNNLKPEDTAVYVCNIRGSYGNTYYSRWGQGTQVTVSS
modifications: sortase-tagged with biotin in the Western blots ; Purified by a his-tag for BLI and sortase-tagged with biotin in the Western blots. The tag letters are not stated for the free nanobody, so they are left out.
B5: LMJ1.3J (VHH)
VHH: QVQLVGTGGGLVQAGGSLRLSCAASGSTFSHSAGGWYRQAPEKQRELVAGISSAGNINYADSVKDRFTISRDNASNTMYLQMNNLKPEDTAVYVCNIRGSYGNTYYSRWGQGTQVTVSS
modifications: sortase-tagged with biotin in the Western blots ; Purified by a his-tag for BLI and sortase-tagged with biotin in the Western blots. The tag letters are not stated for the free nanobody, so they are left out.
B6: LMJ2.5H (VHH)
VHH: QVQLVETGGGLVQAGGSLRLSCAVSGSTFSHSAGGWYRQAPEKQRELVAGIRSDGNINYADSVKDRFTISRDNASNTMYLQMNNLKPEDTAVYVCNIRGSYGNTYYSRWGQGTQVTVSS
modifications: sortase-tagged with biotin in the Western blots ; Western blots used the nanobody sortase-tagged with biotin at a terminus. The BLI material was his-tag purified. Tag letters are not stated for the stand-alone nanobody and are left out.
B7: LMJ2.5I (VHH)
VHH: RVQLVETGGGLVQAGGSLRLSCAVSGSTFSHSAGGWYRQAPEKQRELVAGIRSDGNINYADSVKDRFTISRDNASNTMYLQMNNLKPEDTAVYVCNIRGSYGNTYYSRWGQGAQVTVSS
modifications: sortase-tagged with biotin in the Western blots ; Purified by a his-tag for BLI and sortase-tagged with biotin in the Western blots. The tag letters are not stated for the free nanobody, so they are left out.
B8: NJB2 (parental nanobody) (VHH)
VHH: QVQLVETGGGLVQAGGSLRLSCAASGSTFSHNAGGWYRQAPEKQRELVAGISSDGNINYADSVKDRFTISRDNASNTMYLQMNNLKPEDTAVYVCNIRGSYGNTYYSRWGQGTQVTVSS
modifications: Purified by a his-tag. Its letters and position are not stated for the free nanobody, so it is left out.
B9: LMJ1.2G (VHH)
VHH: QVQLVETGGGLVQAGGSLRLSCAASGSTFSHSAGGWYRQAPEKQRELVAGIGSDGNINYADSVKDRFTISRDNASNTMYLQMNNLKPEDTAVYVCNIRGSYGNTYYSRWGQGTQVTVSS
modifications: sortase-tagged with biotin in the Western blots ; Purified by a his-tag for BLI and sortase-tagged with biotin in the Western blots. The tag letters are not stated for the free nanobody, so they are left out.
B10: LMJ2.5C (VHH)
VHH: QVQLVETGGGLVQAGGSLRLSCAASGSTFSHSAGGWYRQAPEKQRELVAGVRSDGNINYADSVKDRFTISRDNASNTMYLQMNNLKPEDTAVYVCNIRGSYGNTYYSRWGQGIQVTVSS
modifications: sortase-tagged with biotin in the Western blots ; Purified by a his-tag for BLI and sortase-tagged with biotin in the Western blots. The tag letters are not stated for the free nanobody, so they are left out.
B11: LMJ2.6A (VHH)
VHH: RVQLVETGGGLVQAGGSLRLSCAVSGRTFSHSAGGWYRQAPEKQRELVAGIRSDGNINYADSVKDRFTISRDNASNTMYLQMNNLKPGDTAVYVCNIRGSYGNTYYSRWGQGTQVTVSS
modifications: sortase-tagged with biotin in the Western blots ; Purified by a his-tag for BLI and sortase-tagged with biotin in the Western blots. The tag letters are not stated for the free nanobody, so they are left out.

In this assay the target is FN-EIIIB. In words: BLI. Background: BLI is a label-free optical method that tracks binding on a fibre tip over time.
Sequence of FN-EIIIB (chain, as listed by the source): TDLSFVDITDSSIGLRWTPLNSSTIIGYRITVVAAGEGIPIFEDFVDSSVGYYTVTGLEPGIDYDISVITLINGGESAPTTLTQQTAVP
In turn, B1 gave a Kd of 0.0626 nM.
As for B2, binding was characterised by a dissociation constant (Kd) of 0.0622 nM.
On to B3, for which the equilibrium dissociation constant (Kd) was 0.166 nM.
B4 gave a Kd of 0.3 nM.
In turn, B5 gave a Kd of 0.402 nM.
B6 returned a dissociation constant (Kd) of 0.227 nM.
The figure for B7 is 0.0254 nM; for B8 it is 1.82 nM.
B9 came in with a Kd of 0.973 nM.
B10 had a Kd of 0.0785 nM.
In the case of B11 it was 0.344 nM.

The term Kd denotes the constant that tells how readily two partners part at equilibrium.
